The target of assay [1] is human TIGIT expressed on cells (YTS-TIGIT transfectants, NK cells of healthy donors, CD8+ TILs) (human) (UniProt Q495A1). The assay is described as follows: FACS on 75×10^3 YTS-TIGIT cells, serial dilutions 250 nM to 65 fM.
Assay [2] shares this target. The assay is described as follows: FACS blocking assay on YTS-TIGIT cells: antibody titrated against 2.5 pmole PVR-Fc, bound PVR-Fc detected.
The target is the same in assay [3]. The assay is described as follows: FACS on YTS-TIGIT cells in the presence of 2.5 pmole PVR-Fc, bound antibody detected with anti-mouse IgG Alexa Fluor 647.
The target in assay [4] is T1, human TIGIT expressed on cells (YTS-TIGIT transfectants, NK cells of healthy donors, CD8+ TILs) (human, UniProt Q495A1 22-244).
T1 construct: whole, on cells; also called hTIGIT; T-cell immunoglobulin and ITIM domain
T1 sequence (looked up): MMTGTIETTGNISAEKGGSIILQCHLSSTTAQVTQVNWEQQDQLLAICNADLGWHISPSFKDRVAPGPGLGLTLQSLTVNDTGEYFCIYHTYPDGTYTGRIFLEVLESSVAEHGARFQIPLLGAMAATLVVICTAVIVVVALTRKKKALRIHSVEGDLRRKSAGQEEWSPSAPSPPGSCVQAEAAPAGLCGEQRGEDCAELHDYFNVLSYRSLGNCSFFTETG
In words: FACS titration on YTS-TIGIT cells, fluorescence intensity against antibody concentration. The text has this:
FIG. 6A. […] Background—staining of mIgG (grey filled histograms). Each panel represents a specific concentration of the antibodies as indicated. Y-axis of each panel is cell counts and X-axis is fluorescence intensity (FL1-H).

Assay [5] addresses T2, human TIGIT from two commercial sources (loaded on Biacore biosensor) (human, UniProt Q495A1 22-141).
T2 sequence (looked up): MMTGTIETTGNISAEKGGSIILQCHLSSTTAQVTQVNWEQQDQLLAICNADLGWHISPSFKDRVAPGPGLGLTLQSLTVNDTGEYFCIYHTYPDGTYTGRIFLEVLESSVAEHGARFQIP
In words: SPR (Biacore), human TIGIT on the biosensor; average of two commercial sources; average of the two TIGIT sources. The protocol:
(§1) Surface plasmon resonance (SPR) Biosensor Biacore™ T100 (GE Healthcare) was used to determine Koff, Kon and KD between the antibodies and TIGIT.
(§2) Full binding kinetic analyses of the mAbs to human TIGIT from two sources were carried out using Biacore.

Assay [6] deals with T2, human TIGIT from two commercial sources …. In words: SPR (Biacore), human TIGIT on the biosensor; one of two commercial sources; one of two TIGIT sources (source not named). As for the experimental part:
as §1, §2

For assay [7] the target is unchanged. In words: SPR (Biacore), human TIGIT on the biosensor; one of two commercial sources; the other of two TIGIT sources (source not named). The protocol: as §1, §2
Background: SPR reads the build-up and loss of mass on a sensor chip optically.

Consider “commercial anti-TIGIT antibody MBSA43 (eBioscience Cat#12-9500-42)”, for which the lowest concentration at which cells were stained in assay [1] is greater than 1950 fM. In addition, in assay [2], the MFI of bound PVR-Fc, antibody at 0.014 pmol came to 34; the MFI of bound PVR-Fc, antibody at 0.028 pmol is 27.1; the MFI of bound PVR-Fc, antibody at 0.056 pmol came to 22.6; the MFI of bound PVR-Fc, antibody at 0.115 pmol was 12.6. Moreover, in assay [2], the MFI of bound PVR-Fc, antibody at 0.21 pmol was determined as 7.8 and the MFI of bound PVR-Fc, antibody at 0.425 pmol turned out to be 4.5. Also, in assay [3], the MFI of bound antibody at 0.014 pmol worked out at 64, the MFI of bound antibody at 0.028 pmol was 88, the MFI of bound antibody at 0.056 pmol worked out at 150 and the MFI of bound antibody at 0.115 pmol stood at 224. In addition, in assay [3], the MFI of bound antibody at 0.21 pmol stood at 302, the MFI of bound antibody at 0.425 pmol came out at 325, the MFI of bound antibody at 0.85 pmol was determined as 380 and the MFI of bound antibody at 27 pmol stood at 445.

B1: anti human TIGIT monoclonal antibody VSIG9#1 (antibody, V domains shown)
VH: QVQLQESGAELARPGASVKLSCKASGYTFTSYGISWVKQRTGQGLEWIGEIYPRSGNTYYNEKFKGKATLTADKSSSTAYMELSSLTSEDSAVYFCARKGPYYTKNEDYWGQGTILTVSS
VL: DIQMTQSPASLAASVGETVTITCRASEHIYYSLAWYQQKQGKSPQLLIYNANSLEDGVPSRFSGSGSGTQYSMKINSMQPEDTATYFCKQAYDVPRTFGGGTKLEIKR
notes: Mouse monoclonal antibody from a hybridoma; It was detected with anti-mouse IgG; also called Vsig9.01; anti TIGIT-VSIG9#1
As a reminder, the EC50 (read off the curve) is the concentration at which the effect is half-maximal. A lower EC50 (read off the curve) goes with an effect from little substance. As a reminder, the Kd is the constant that tells how readily two partners part at equilibrium. Lower therefore signals tighter binding. With B1, in assay [4], the “EC50 (read off the curve)” value is roughly 7 pM. For the same molecule, the Kd was 450 pM in assay [5], 513 pM in assay [6] and 387 pM in assay [7].

B2: anti human TIGIT monoclonal antibody 258-CS1#4 (antibody, V domains shown)
VH: QVQLLQPGAELVKPGASVKLSCKASGYTFTIYCIHWVKQRPGQGLEWIGEISPSNGRTIYNEKFKNKATLTIDKSSTTAYMQLSSLTSEDSAVYCCAISDGYDGYYFDYWGQGTTLTVSS
VL: DIQMTQSPSSLSASLGERVSLTCRASQEISGYLNWLQQKPDGTIKRLIYAASTLDSGVPKRFSGSRSGSDYSLTISRLESEDFADYYCLQYASYPRTFGGGTKLEIK
notes: Mouse monoclonal antibody from a hybridoma
Regarding B2, the Kd in assay [5] is roughly 100000 pM; in assay [6], 99600 pM; in assay [7], 107000 pM.
